± gives the uncertainty stated by the source.
Test: protein stability index of a GFP-peptide fusion (yeast GPS) (PSI 1-4); higher = more stable; sorted into four equal gates, so the index is relative within each strain
Summary of the method: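 Plasmids isolated from each sorting gate were PCR-amplified and Illumina-sequenced, and barcodes assigned the reads to strains. The gates, four of equal size, were set by GFP/Cherry fluorescence ratio on mid-log cultures in leucine-free medium. These cultures were yeast carrying a pooled library of tiled 17-residue yeast protein peptides fused downstream of GFP on a plasmid that also expresses Cherry. The protein stability index is the sum of every gate's read frequency times its gate number.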

Row | Sequence | protein stability index (doa10∆) | protein stability index (pdr5∆) | protein stability index (san1∆) | protein stability index (ubr1∆)
1 | QGKPYISLPKGKGIKLS [RPS4A] | 3.29 ± 0.07 | 3.33 ± 0.081 | 2.84 ± 0.06 | 2.45 ± 0.073
2 | QGSVRRLTVSARDAPTK [QCR2] | 2.93 ± 0.12 | 3.16 ± 0.076 | 2.92 ± 0.086 | 3.14 ± 0.061
3 | QHLQFNGSSDASSLRFG [YDL088C/ASM4] | 2.24 ± 0.055 | 2.3 ± 0.049 | 1.99 ± 0.076 | 1.83 ± 0.038
4 | QIANDPSKKRRRDFGAP [SMD1] | 2.81 ± 0.12 | 3.18 ± 0.1 | 2.86 ± 0.092 | 3.25 ± 0.073
5 | QIKGLQWMVSLFNNHLN [SNF2] | 1.79 ± 0.12 | 1.74 ± 0.097 | 1.4 ± 0.14 | 1.36 ± 0.058
6 | QILSTVVEDKPLLSKKE [SMB1] | 1.15 ± 0.061 | 1.19 ± 0.042 | 1.19 ± 0.12 | 1.48 ± 0.054
7 | QILSVAIPNGIHLQRFD [RPO21] | 2.41 ± 0.1 | 2.33 ± 0.075 | 1.94 ± 0.1 | 2.77 ± 0.079
8 | QINQGVPSAKPLILTPP [SNF11] | 2.75 ± 0.055 | 2.3 ± 0.052 | 2.8 ± 0.058 | 2.02 ± 0.032
9 | QIPHFNNKILEKCKEIN [BRR2] | 1.28 ± 0.11 | 2.23 ± 0.12 | 1.88 ± 0.22 | 2.02 ± 0.14
10 | QIPTPNNTVDPGFDEFQ [CSI1] | 3.17 ± 0.057 | 2.98 ± 0.045 | 3.04 ± 0.043 | 2.89 ± 0.039
11 | QIVDIRNKRAVQLPILK [YJL039C/NUP192] | 2.2 ± 0.1 | 2.04 ± 0.053 | 1.43 ± 0.056 | 1.92 ± 0.058
12 | QIVKYARKGLTPSQIGV [RPS13] | 3.12 ± 0.068 | 2.97 ± 0.086 | 2.47 ± 0.082 | 2.83 ± 0.086
13 | QIVQVLKQPPFQITLSS [SSN8] | 2.12 ± 0.062 | 2.06 ± 0.074 | 1.86 ± 0.094 | 2.54 ± 0.081
14 | QKESDAKNETNSESDSK [ITC1] | 2.94 ± 0.044 | 3.03 ± 0.046 | 3.02 ± 0.045 | 2.85 ± 0.043
15 | QKGTIGITYRREDMPFT [RPB2] | 3.01 ± 0.1 | 2.68 ± 0.08 | 2.8 ± 0.08 | 2.9 ± 0.069
16 | QKIVVVRAEELNISGEF [RPL16A] | 3.64 ± 0.2 | 3.06 ± 0.21 | 3.17 ± 0.16 | 3.28 ± 0.19
17 | QKKVPDKLLDPTTVSYI [SCL1] | 2.9 ± 0.05 | 2.28 ± 0.047 | 2.4 ± 0.056 | 2.67 ± 0.044
18 | QKLMQLVVLTDVVERLH [RGR1] | 2.29 ± 0.072 | 2.38 ± 0.049 | 2.23 ± 0.091 | 2.3 ± 0.035
19 | QKSGRPVKSIRARLKGK [RPO21] | 2.17 ± 0.12 | 2.23 ± 0.12 | 2.34 ± 0.2 | 1.77 ± 0.24
20 | QKSINHPPDFKRMLLSL [SNF2] | 1.66 ± 0.04 | 1.42 ± 0.039 | 1.71 ± 0.062 | 1.38 ± 0.022
21 | QKSTELLIRKLPFQRLV [HHT1] | 1.26 ± 0.14 | 1.12 ± 0.17 | 1.17 ± 0.21 | 1.3 ± 0.16
22 | QLAIRNDDELNKLLGNV [HTA1] | 3.31 ± 0.14 | 3.38 ± 0.071 | 3.23 ± 0.064 | 3.43 ± 0.078
23 | QLDKKNELQKFQALWQL [SMC1] |  |  | 2.58 ± 0.1 | 
24 | QLFHNLISIHSRENNSE [YJL039C/NUP192] | 2.6 ± 0.079 | 2.61 ± 0.076 | 2.3 ± 0.11 | 2.88 ± 0.091
25 | QLGYGKFLILNENPINK [NUT1] | 2.92 ± 0.12 | 2.53 ± 0.12 | 2.71 ± 0.077 | 2.84 ± 0.13
26 | QLKRWYWQFNGVIALGQ [RMP1] |  |  |  | 1.41 ± 0.22
27 | QLLDTSNQRFKDLQWLE [SIN4] | 3.02 ± 0.066 | 2.96 ± 0.076 | 2.88 ± 0.06 | 2.91 ± 0.043

Row | Sequence | protein stability index (doa10∆) | protein stability index (pdr5∆) | protein stability index (san1∆) | protein stability index (ubr1∆)
28 | QLLGDVMTYKGEVLGIT [RPO31] | 3.28 ± 0.11 | 3.43 ± 0.069 | 3.24 ± 0.14 | 3.33 ± 0.075
29 | QLLKEDSEKRNKYAAML [RRP45] | 3.13 ± 0.11 | 2.81 ± 0.089 | 2.75 ± 0.18 | 2.97 ± 0.05
30 | QLLLLSDERAKLELINR [LRP1] | 2.93 ± 0.092 | 3.06 ± 0.18 | 2.99 ± 0.11 | 2.99 ± 0.18
31 | QLLQRIPNIPPNINTWQ [GAL11] | 2.55 ± 0.048 | 2.72 ± 0.049 | 1.96 ± 0.059 | 2.62 ± 0.044
32 | QLPANMVHLYSIVEECD [RPC17] | 1.99 ± 0.044 | 1.98 ± 0.045 | 1.86 ± 0.065 | 2.02 ± 0.04
33 | QLPKQLWRNFCRKLSFS [ITC1] | 2.67 ± 0.059 | 2.66 ± 0.05 | 2.6 ± 0.039 | 2.66 ± 0.034
34 | QLTVCGAIIGWTRGTGL [FAS2] | 1.26 ± 0.079 | 1.18 ± 0.067 | 1.09 ± 0.23 | 1.3 ± 0.085
35 | QLYESGNPVNDANLLGA [COR1] | 2.53 ± 0.059 | 2.65 ± 0.057 | 2.42 ± 0.069 | 2.81 ± 0.044
36 | QLYKARMSIKLLRLASK [POP1] | 1.54 ± 0.064 | 1.39 ± 0.072 | 1.4 ± 0.11 | 1.14 ± 0.048
37 | QMAKDVTTFLNWCAEPE [CYT1] | 3.4 ± 0.068 | 3.25 ± 0.067 | 3.04 ± 0.098 | 3.46 ± 0.073
38 | QMIDTSILPTRDDLFVR [NUT1] | 2.86 ± 0.06 | 2.88 ± 0.062 | 2.73 ± 0.08 | 2.33 ± 0.044
39 | QNDQWSIQMEFMLRKQD [SSN2] | 2.53 ± 0.071 | 2.58 ± 0.088 | 2.4 ± 0.12 | 2.81 ± 0.074
40 | QNNSKHTEDTVNESRNS [SRB5] |  | 2.73 ± 0.1 | 2.95 ± 0.09 | 2.98 ± 0.11
41 | QNSDASTLEPTLRKELE [YIL149C/MLP2] | 2.59 ± 0.09 | 1.68 ± 0.091 | 2.55 ± 0.069 | 3.12 ± 0.077
42 | QNTIDDTEMKMKSLLTE [YIL149C/MLP2] | 3.25 ± 0.066 | 3.39 ± 0.054 | 3.17 ± 0.067 | 3.19 ± 0.05
43 | QNYLKTYNEDIPVEILV [PRE9] | 2.79 ± 0.066 | 2.05 ± 0.084 | 2.76 ± 0.091 | 2.38 ± 0.071
44 | QPEDLEPAEANEENDLD [RPB2] | 3.35 ± 0.17 | 3.15 ± 0.19 | 3.21 ± 0.13 | 3.42 ± 0.16
45 | QPIFVAHTAGRYANKRF [RPS5] | 1.55 ± 0.076 | 2.03 ± 0.072 | 1.61 ± 0.12 | 1.78 ± 0.069
46 | QPQALQKSGRPVKSIRA [RPO21] | 2.62 ± 0.065 | 2.29 ± 0.069 | 2.36 ± 0.083 | 2.17 ± 0.037
47 | QPSSSRYNGGNDNIGAN [SMB1] | 3.2 ± 0.091 | 3.49 ± 0.08 | 3.23 ± 0.049 | 3.37 ± 0.075
48 | QPVLEKPLKKGSADIGA [SIR4] | 3.16 ± 0.078 | 3.1 ± 0.061 | 3.08 ± 0.042 | 2.94 ± 0.055
49 | QQQQQQHIYPSSTPGVA [GAL11] | 2.728 ± 0.022 | 2.78 ± 0.029 | 2.664 ± 0.023 | 2.664 ± 0.025
50 | QQQQQQQQQQQQQQQQQ [GAL11] | 2.57 ± 0.032 | 2.78 ± 0.028 | 2.661 ± 0.026 | 2.903 ± 0.023
51 | QQQQQQQVPPLPDELTL [DLS1] | 2.63 ± 0.035 | 2.72 ± 0.038 | 2.727 ± 0.027 | 2.689 ± 0.025
52 | QQQSADHDDSTDDADDH [NSL1] | 2.91 ± 0.059 | 2.91 ± 0.064 | 2.77 ± 0.057 | 3.01 ± 0.037
53 | QQQTSTFNSKPVRTIVP [SIR4] | 2.38 ± 0.032 | 2.77 ± 0.036 | 2.6 ± 0.039 | 2.58 ± 0.028
54 | QQQVLNKLRQQAIAKNN [SNF5] | 1.13 ± 0.066 | 1.2 ± 0.072 | 1.11 ± 0.13 | 1.05 ± 0.052
